B1: Rous Sarcoma Virus capsid protein (RSV CA), wild type (natural protein)
chain: PVVIKTEGPAWTPLEPKLITRLADTVRTKGLRSPITMAEVEALMSSPLLPHDVTNLMRVILGPAPYALWMDAWGVQLQTVIAAATRDPRHPANGQGRGERTNLNRLKGLADGMVGNPQGQAALLRPGELVAITASALQAFREVARLAEPAGPWADIMQGPSESFVDFANRLIKAVEGSDLPPSARAPVIIDCFRQKSQPDIQQLIRTAPSTLTTPGEIIKYVLDRQKTAPLTDQGIA
notes: capsid protein (CA), the cut product of the Gag polyprotein of Rous sarcoma virus strain Prague C; the naturally occurring species denoted CA (without spacer peptide residues); also called wild type RSV CA; full length RSV CA; not shown: Mycobacterium xenopi GyrA intein (modified), C-terminal, cleaved

How the values were obtained:
[1] = biological target: RSV CA carrying the C-terminal spacer peptide (CA-SP, CA + 12) (Rous Sarcoma Virus (strain Prague C)); test: cryo-EM structure; iterative real space helical reconstruction (SPRING) of one single-layered CA-SP tube, local C6 symmetrization of the turrets, 24 Å (FSC 0.143)
[2] = biological target: the molecule itself; test: negative-stain transmission electron microscopy; 600–700 μM protein dialyzed 16–24 h (overnight) at 37 °C against neutral pH (pH 7) buffer with 25–150 mM NaCl; uranyl acetate stain

Row | Molecule | stoichiometry N [1] | stoichiometry N [2]
1 | RSV CA carrying the C-terminal spacer peptide (CA-SP, CA + 12) (natural protein) | 6 | 
2 | B1 |  | 6
